Patent US12583886 (KING ABDULLAH UNIVERSITY OF SCIENCE AND TECHNOLOGY, dated 2026)

B1: human DNA polymerase eta (Polη), native after SUMO protease digestion (enzyme, UniProt Q9Y253 1-713, looked up)
chain: MATGQDRVVALVDMDCFFVQVEQRQNPHLRNKPCAVVQYKSWKGGGIIAVSYEARAFGVTRSMWADDAKKLCPDLLLAQVRESRGKANLTKYREASVEVMEIMSRFAVIERASIDEAYVDLTSAVQERLQKLQGQPISADLLPSTYIEGLPQGPTTAEETVQKEGMRKQGLFQWLDSLQIDNLTSPDLQLTVGAVIVEEMRAAIERETGFQCSAGISHNKVLAKLACGLNKPNRQTLVSHGSVPQLFSQMPIRKIRSLGGKLGASVIEILGIEYMGELTQFTESQLQSHFGEKNGSWLYAMCRGIEHDPVKPRQLPKTIGCSKNFPGKTALATREQVQWWLLQLAQELEERLTKDRNDNDRVATQLVVSIRVQGDKRLSSLRRCCALTRYDAHKMSHDAFTVIKNCNTSGIQTEWSPPLTMLFLCATKFSASAPSSSTDITSFLSSDPSSLPKVPVTSSEAKTQGSGPAVTATKKATTSLESFFQKAAERQKVKEASLSSLTAPTQAPMSNSPSKPSLPFQTSQSTGTEPFFKQKSLLLKQKQLNNSSVSSPQQNPWSNCKALPNSLPTEYPGCVPVCEGVSKLEESSKATPAEMDLAHNSQSMHASSASKSVLEVTQKATPNPSLLAAEDQVPCEKCGSLVPVWDMPEHMDYHFALELQKSFLQPHSSNPQVVSAVSHQGKRNPKSPLACTNKRPRPEGMQTLESFFKPLTH
notes: mature; also called Poln
B2: human DNA polymerase kappa (Polκ), N-terminally Histidine- and SUMO-tagged (enzyme, UniProt Q9UBT6 1-870, looked up)
chain: MDSTKEKCDSYKDDLLLRMGLNDNKAGMEGLDKEKINKIIMEATKGSRFYGNELKKEKQVNQRIENMMQQKAQITSQQLRKAQLQVDRFAMELEQSRNLSNTIVHIDMDAFYAAVEMRDNPELKDKPIAVGSMSMLSTSNYHARRFGVRAAMPGFIAKRLCPQLIIVPPNFDKYRAVSKEVKEILADYDPNFMAMSLDEAYLNITKHLEERQNWPEDKRRYFIKMGSSVENDNPGKEVNKLSEHERSISPLLFEESPSDVQPPGDPFQVNFEEQNNPQILQNSVVFGTSAQEVVKEIRFRIEQKTTLTASAGIAPNTMLAKVCSDKNKPNGQYQILPNRQAVMDFIKDLPIRKVSGIGKVTEKMLKALGIITCTELYQQRALLSLLFSETSWHYFLHISLGLGSTHLTRDGERKSMSVERTFSEINKAEEQYSLCQELCSELAQDLQKERLKGRTVTIKLKNVNFEVKTRASTVSSVVSTAEEIFAIAKELLKTEIDADFPHPLRLRLMGVRISSFPNEEDRKHQQRSIIGFLQAGNQALSATECTLEKTDKDKFVKPLEMSHKKSFFDKKRSERKWSHQDTFKCEAVNKQSFQTSQPFQVLKKKMNENLEISENSDDCQILTCPVCFRAQGCISLEALNKHVDECLDGPSISENFKMFSCSHVSATKVNKKENVPASSLCEKQDYEAHPKIKEISSVDCIALVDTIDNSSKAESIDALSNKHSKEECSSLPSKSFNIEHCHQNSSSTVSLENEDVGSFRQEYRQPYLCEVKTGQALVCPVCNVEQKTSDLTLFNVHVDVCLNKSFIQELRKDKFNPVNQPKESSRSTGSSSGVQKAVTRTKRPGLMTKYSTSKKIKPNNPKHTLDIFFK
notes: mature; The SUMO tag was removed only after the PCNA-Agarose step; also called Polk; not shown: N-terminal Histidine tag and SUMO tag from the pESUMO pro vector
B3: human p15, N-terminally Histidine- and SUMO-tagged (other, UniProt Q15004 1-111, looked up)
chain: MVRTKADSVPGTYRKVVAARAPRKVLGSSTSATNSTSVSSRKAENKYAGGNPVCVRPTPKWQKGIGEFFRLSPKDSEKENQIPEEAGSSGLGKAKRKACPLQPDHTNDEKE
notes: mature; The PCNA-Agarose column was the first step, so the His- and SUMO-tags were still on the protein; not shown: N-terminal Histidine tag and SUMO tag from the pESUMO pro vector
B4: human DNA polymerase iota (Polι), N-terminally Histidine- and SUMO-tagged (enzyme, UniProt Q9UNA4 1-740, looked up)
chain: MEKLGVEPEEEGGGDDDEEDAEAWAMELADVGAAASSQGVHDQVLPTPNASSRVIVHVDLDCFYAQVEMISNPELKDKPLGVQQKYLVVTCNYEARKLGVKKLMNVRDAKEKCPQLVLVNGEDLTRYREMSYKVTELLEEFSPVVERLGFDENFVDLTEMVEKRLQQLQSDELSAVTVSGHVYNNQSINLLDVLHIRLLVGSQIAAEMREAMYNQLGLTGCAGVASNKLLAKLVSGVFKPNQQTVLLPESCQHLIHSLNHIKEIPGIGYKTAKCLEALGINSVRDLQTFSPKILEKELGISVAQRIQKLSFGEDNSPVILSGPPQSFSEEDSFKKCSSEVEAKNKIEELLASLLNRVCQDGRKPHTVRLIIRRYSSEKHYGRESRQCPIPSHVIQKLGTGNYDVMTPMVDILMKLFRNMVNVKMPFHLTLLSVCFCNLKALNTAKKGLIDYYLMPSLSTTSRSGKHSFKMKDTHMEDFPKDKETNRDFLPSGRIESTRTRESPLDTTNFSKEKDINEFPLCSLPEGVDQEVFKQLPVDIQEEILSGKSREKFQGKGSVSCPLHASRGVLSFFSKKQMQDIPINPRDHLSSSKQVSSVSPCEPGTSGFNSSSSSYMSSQKDYSYYLDNRLKDERISQGPKEPQGFHFTNSNPAVSAFHSFPNLQSEQLFSRNHTTDSHKQTVATDSHEGLTENREPDSVDEKITFPSDIDPQVFYELPEAVQKELLAEWKRAGSDFHIGHK
notes: mature; The SUMO tag was removed only after the PCNA-Agarose step; also called Polt; Poli; not shown: N-terminal Histidine tag and SUMO tag from the pESUMO pro vector

Columns and labels:
[1] = target: human PCNA N107C, N-terminally Histidine-tagged, coupled to SulfoLink agarose resin (PCNA-Agarose column) (human) (UniProt P12004); assay: salt-gradient elution from PCNA-Agarose column, empirical cumulative integration
[2] = target: human PCNA N107C, N-terminally Histidine-tagged, coupled to SulfoLink agarose resin (PCNA-Agarose column) (human) (UniProt P12004); assay: salt-gradient elution from PCNA-Agarose column (N107C PCNA on SulfoLink resin), EMG fit of UV 280 nm peak
[3] = target: T1, human PCNA N107C, N-terminally Histidine-tagged, coupled to SulfoLink agarose resin (PCNA-Agarose column) (human, UniProt P12004 1-261, Cys 107 joined by a thioether bond to the iodoacetyl group of SulfoLink agarose resin); assay: as above
T1 construct: Homo-trimeric ring; Immobilised bait on the column; also called N107C-PCNA; Proliferating Cell Nuclear Antigen

[4] = target: T1, human PCNA N107C, N-terminally …; assay: salt-gradient elution from PCNA-Agarose column, empirical cumulative integration
Description: Two different methods were used for defining and determining this salt concentration. One method relies on empirical calculations while the second method employs a specific model for the elution peak shape. For both methods, protein elution from the column was monitored by the value recorded by the UV detector at 280 nm. The UV absorption was then plotted on the y-axis versus the NaCl concentration (here denoted as 'c') on the x-axis in the gradient region of each chromatogram. Since linear gradients were used for elution, the conversion is readily feasible from the volume in ml to salt concentration in mM on the x-axis, resulting in direct rescaling of the axis.
A binding assay based on chromatography is presented, where the PCNA-Agarose column is used as an analytical tool. The protein of interest was loaded onto the PCNA-Agarose column at low salt concentration followed by extensive washing with a buffer of an equal ionic strength to remove the non-specifically bound proteins. A salt gradient was applied to the column to elute the bound protein of interest. This gradient region of elution in the chromatogram was used for the subsequent analysis. […] The resulting data points, i.e., UV units versus salt concentrations, were analyzed either by the empirical method of cumulative integration or by fitting the peak profile with an EMG model. […]

T1 sequence (P12004 other isoform, or with tags, fused parts or gaps N107C N107C limits assumed): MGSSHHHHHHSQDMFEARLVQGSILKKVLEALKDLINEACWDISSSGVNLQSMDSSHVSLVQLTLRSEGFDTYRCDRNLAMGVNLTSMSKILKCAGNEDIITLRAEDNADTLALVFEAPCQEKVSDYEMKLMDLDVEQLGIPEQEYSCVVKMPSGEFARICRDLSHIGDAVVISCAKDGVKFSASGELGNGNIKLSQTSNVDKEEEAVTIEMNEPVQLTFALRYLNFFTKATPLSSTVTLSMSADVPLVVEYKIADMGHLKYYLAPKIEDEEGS
Sequence of human PCNA N107C, N-terminally Histidine-tagged, coupled to SulfoLink agarose resin (PCNA-Agarose column) (human) (P12004 other isoform, or with tags, fused parts or gaps N107C N107C limits assumed): as above

Row | median NaCl concentration of elution (50% cumulative elution) [1] [mM] | Elution Peak (mM NaCl, mode of EMG fit) [2] [mM] | Elution Peak (mM NaCl, mode of EMG fit) [3] [mM] | median NaCl concentration of elution (50% cumulative elution) [4] [mM] | Molecule
1 | > 400 | 534 | – | – | human DNA polymerase delta (Polδ), four-subunit complex p125/p50/p68/p12 expressed in Sf9 insect cells (from UniProt P28340 1-1107; P49005 1-469; Q15054 1-466; Q9HCU8 1-107) (enzyme)
2 | – | – | 513 | > 400 | B1
3 | – | – | 547 | > 400 | B2
4 | – | – | 340 | – | B3
5 | – | – | 359 | – | B4
